Assay results published in patent US20190374608A1 (BOARD OF TRUSTEES OF THE UNIVERSITY OF ILLINOIS, published 2019).
Where no end group is shown, it is not given here. (CH2CH2O)27 = 27 units of polyethylene glycol linked to the C-terminal Asp, ending in NH2

T1: human CCR3 on cells (AML14.3D10-CCR3 cells, blood eosinophils, 4DE4-CCR3 cells) (human, UniProt P51677 1-355)
T1 sequence (looked up): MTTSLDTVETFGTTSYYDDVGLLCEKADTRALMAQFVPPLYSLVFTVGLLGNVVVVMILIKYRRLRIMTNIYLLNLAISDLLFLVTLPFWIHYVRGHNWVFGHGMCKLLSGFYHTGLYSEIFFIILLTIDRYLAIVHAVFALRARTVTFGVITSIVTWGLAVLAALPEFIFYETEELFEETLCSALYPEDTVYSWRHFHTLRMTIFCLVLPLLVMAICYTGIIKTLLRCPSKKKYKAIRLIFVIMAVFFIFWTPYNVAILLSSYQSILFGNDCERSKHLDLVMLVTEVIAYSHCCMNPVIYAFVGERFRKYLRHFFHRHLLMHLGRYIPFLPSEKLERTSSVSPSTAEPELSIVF

T2: human CCR3 in membrane preparations, 13C-reductively methylated (CCR3-K-di13CH3) (human, UniProt P51677 1-355, lysines reductively methylated with 13C (K-di13CH3))
T2 construct: also called CCR3 membrane preps; C-C chemokine receptor 3
T2 sequence (looked up): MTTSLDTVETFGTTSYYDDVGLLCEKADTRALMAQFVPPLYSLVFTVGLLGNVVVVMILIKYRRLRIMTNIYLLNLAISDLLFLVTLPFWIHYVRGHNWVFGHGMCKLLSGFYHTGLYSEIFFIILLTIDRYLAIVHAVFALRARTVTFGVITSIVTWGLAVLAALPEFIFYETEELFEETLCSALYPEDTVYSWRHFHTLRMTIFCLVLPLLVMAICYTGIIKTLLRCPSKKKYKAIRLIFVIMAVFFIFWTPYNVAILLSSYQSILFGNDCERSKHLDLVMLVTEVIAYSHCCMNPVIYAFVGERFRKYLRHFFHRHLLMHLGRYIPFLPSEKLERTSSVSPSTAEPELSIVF


Experiments:
[1] = molecular target: T1, human CCR3 on cells (AML14.3D10-CCR3 …); experiment: cell-based or functional assay
[2] = molecular target: T2, human CCR3 in membrane preparations, …; experiment: NMR, 13C HSQC of 13C-reductively methylated CCR3 membrane preps (0.25 mg/ml) with 1 µM CCL11
Experimental: FIG. 6A to FIG. 6E show NMR evaluation of the binding of R3-2-1 and CCL11/eotaxin-1 to CCR3 membrane preparations. ¹³C HSQC spectra of ¹³C-reductively methylated CCR3 membrane preps (0.25 mg/ml) were recorded with 1 μM CCL11 and 10 μM R321. FIG. 6A, reductively methylated CCR3 (CCR3-K-di¹³CH3) (gray) and reductively methylated CCR3 with CCL11 (black); FIG. 6B, reductively methylated CCR3 (CCR3-K-di¹³CH3) (gray) and reductively methylated CCR3 with R321 (black); FIG. 6C, reductively methylated CCR3 (CCR3-K-di¹³CH3) (gray) and reductively methylated CCR3 with CCL11 and R321 (black); FIG. 6D, reductively methylated CCR3 with CCL11 (gray) and reductively methylated CCR3 with CCL11 and R321 (black); and FIG. 6E, reductively methylated CCR3 with R321 (gray) and reductively methylated CCR3 with CCL11 and R321 (black) show chemical shift changes indicative of binding. Black arrows indicate the differences in chemical shifts.

Row | Binder | IC50 of inhibition of CCL11/Eotaxin-1 (12 nM)-induced chemotaxis, AML14.3D10-CCR3 cells [1] [µM] | IC50 of inhibition of CCL11/Eotaxin-1 (12 nM)-induced chemotaxis, blood eosinophils [1] [µM] | IC50 of inhibition of CCL24/Eotaxin-2 (20 nM)-induced chemotaxis, AML14.3D10-CCR3 cells [1] [µM] | IC50 of inhibition of CCL24/Eotaxin-2 (20 nM)-induced chemotaxis, blood eosinophils [1] [µM] | IC50 of inhibition of CCL26/Eotaxin-3 (100 nM)-induced chemotaxis, AML14.3D10-CCR3 cells [1] [µM] | IC50 of inhibition of CCL26/Eotaxin-3 (100 nM)-induced chemotaxis, blood eosinophils [1] [µM] | binding result [2]
1 | LLFLVTLPFWIHYVRGHNWVFGHDDD-{(CH2CH2O)27-NH2} [R3-2-1 peptide (CCR3 second transmembrane helix peptide analog, PEG27, C-terminal amide)] | 0.21 | 0.11 | 0.14 | 0.08 | 0.1 | 0.16 | 
2 | recombinant human CCL11 (ligand, also called eotaxin; eotaxin-1) not shown |  |  |  |  |  |  | binds
